For assay [1], the target named is T1, human iRhom2, endogenously expressed (human, UniProt Q6PJF5 1-856).
T1 sequence: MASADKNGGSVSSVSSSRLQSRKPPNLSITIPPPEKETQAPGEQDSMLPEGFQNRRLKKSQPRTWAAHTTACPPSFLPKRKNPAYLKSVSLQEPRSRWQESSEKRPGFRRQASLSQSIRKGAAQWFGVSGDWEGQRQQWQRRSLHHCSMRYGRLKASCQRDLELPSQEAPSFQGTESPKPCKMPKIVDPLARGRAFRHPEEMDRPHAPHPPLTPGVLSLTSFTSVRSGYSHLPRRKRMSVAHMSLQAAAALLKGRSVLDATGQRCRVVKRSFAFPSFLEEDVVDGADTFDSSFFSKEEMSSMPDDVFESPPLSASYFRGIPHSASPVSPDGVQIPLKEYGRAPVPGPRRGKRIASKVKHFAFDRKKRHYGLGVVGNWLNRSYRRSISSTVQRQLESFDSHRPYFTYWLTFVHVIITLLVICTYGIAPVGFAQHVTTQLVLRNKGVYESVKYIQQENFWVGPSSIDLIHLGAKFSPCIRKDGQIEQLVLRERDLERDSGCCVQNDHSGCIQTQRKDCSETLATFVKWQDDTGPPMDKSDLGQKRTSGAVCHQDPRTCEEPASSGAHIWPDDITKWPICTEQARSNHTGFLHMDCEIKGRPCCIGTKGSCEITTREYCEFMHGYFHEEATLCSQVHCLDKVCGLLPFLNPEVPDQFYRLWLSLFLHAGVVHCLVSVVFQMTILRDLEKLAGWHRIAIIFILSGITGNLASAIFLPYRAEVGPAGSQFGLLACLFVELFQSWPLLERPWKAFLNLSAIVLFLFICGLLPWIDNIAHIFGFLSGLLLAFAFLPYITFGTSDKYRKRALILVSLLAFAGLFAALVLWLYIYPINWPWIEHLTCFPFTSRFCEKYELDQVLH
In words: cell-based or functional assay.

A further assay deals with T2, mouse iR1 wild type (mouse).
T2 construct: wild type, expressed on cells; also called mouse iRhom1 wild type
In words: FACS, MEF-DKO cells, 3 µg/ml.

The target in another assay is T3, hiR1-FL-WT-T7 (human, UniProt Q96CC6 1-855).
T3 construct: on MEF-DKO cells
T3 sequence: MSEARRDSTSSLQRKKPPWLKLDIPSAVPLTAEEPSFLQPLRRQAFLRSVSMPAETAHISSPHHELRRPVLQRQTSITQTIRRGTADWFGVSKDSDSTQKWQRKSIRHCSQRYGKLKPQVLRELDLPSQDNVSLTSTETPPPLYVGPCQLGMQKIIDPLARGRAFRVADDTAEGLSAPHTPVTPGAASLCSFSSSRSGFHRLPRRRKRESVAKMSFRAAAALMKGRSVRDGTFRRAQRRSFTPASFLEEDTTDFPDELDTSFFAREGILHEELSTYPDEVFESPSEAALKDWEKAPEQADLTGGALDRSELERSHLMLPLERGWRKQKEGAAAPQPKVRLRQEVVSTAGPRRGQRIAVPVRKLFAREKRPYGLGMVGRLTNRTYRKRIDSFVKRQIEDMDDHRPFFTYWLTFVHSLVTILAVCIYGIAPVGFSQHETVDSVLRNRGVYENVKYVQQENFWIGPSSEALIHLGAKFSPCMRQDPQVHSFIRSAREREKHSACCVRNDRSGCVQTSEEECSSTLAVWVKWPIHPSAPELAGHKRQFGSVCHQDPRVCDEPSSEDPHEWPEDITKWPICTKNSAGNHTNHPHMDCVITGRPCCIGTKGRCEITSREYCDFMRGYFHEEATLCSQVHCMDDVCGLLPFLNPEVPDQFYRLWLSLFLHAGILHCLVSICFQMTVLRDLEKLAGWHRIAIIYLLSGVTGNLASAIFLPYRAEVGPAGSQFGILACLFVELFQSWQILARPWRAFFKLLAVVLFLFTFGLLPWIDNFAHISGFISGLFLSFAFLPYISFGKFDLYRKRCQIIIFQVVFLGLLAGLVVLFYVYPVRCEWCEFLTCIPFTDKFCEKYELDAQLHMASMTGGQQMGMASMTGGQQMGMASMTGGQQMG
In words: FACS, MEF-DKO cells, 3 µg/ml.

B1: antibody 34 (antibody, V domains shown)
VH: QVTLKESGPGILQPSQTLSLTCSFSGFSLSTFSLGVGWIRQSSGKGLEWLAHIWWDDEKYYNPALKSRLTISKDTSKNQVFLKIANVDAADTATYYCARAYYSKSYYALDYWGQGTSVTVSS
VL: DIQMTQSPSSLSASLGERVSLTCRASQEISGYLSWLQQKPDGTIKRLIYAASTLDSGVPKRFSGSRSGSDYSLAISSLESEDFADYYCLQYANFPFTFGSGTKLEIK
notes: mouse IgG, kappa light chain; also called clone #34; purified antibody 34
With B1, in assay [1], the “LPS-induced TNFα release from THP-1 cells, percent inhibition, 10 µg/ml, hybridoma-purified” value was found to be 27.3%; the “LPS-induced TNFα release from THP-1 cells, percent inhibition, recombinant antibody” value came out at 73.8%; the “PMA-induced HB-EGF release from THP-1 cells, percent inhibition, 3 µg/ml” value is 64.2%; the “PMA-induced HB-EGF release from U-937 cells, percent inhibition” value came out at 98.2%. In assay [1], the “PMA-induced IL-6R release from THP-1 cells, percent inhibition, 1 µg/ml” value came to 71.1%; the “PMA-induced IL-6R release from U-937 cells, percent inhibition, 1 µg/ml” value is 69.3%; the “PMA-induced IL-6R release from U-937 cells, percent inhibition, 3 µg/ml” value was 74.6%; the “PMA-induced TNFα release from U-937 cells, percent inhibition, 1 µg/ml” value was determined as 68.6%. The “PMA-induced TNFα release from U-937 cells, percent inhibition, 3 µg/ml” value in assay [1] is 79.9%. Further, the “loss of binding vs wild type” value with mouse iR1 wild type was not below 95%. Further, in the assay with hiR1-FL-WT-T7, the “loss of binding vs wild type” value is not below 95%.

B2: antibody 42 (antibody, V domains shown)
VH: QVTLKESGPGILQPSQTLSLTCSLSGFSLSTFGRGVGWIRQPSGKGLEWLAHIWWDDEKYYNPALKSRLTISKDTSKNQVFLRIANVDTADTATYYCARIQNYGSNYWYFDVWGTGTTVTVSS
VL: LIVLTQSPAIMSASPGEKVTMTCGATSRISYMFWYQQKPGSSPRVLIYDTSNLASGVPVRFSGSGSGTSYSLTISRVEAEDVATYYCQQWNSYPLTFGAGTKLELK
notes: mouse IgG, kappa light chain; also called clone #42; purified antibody 42
Regarding B2, in assay [1], the “LPS-induced TNFα release from PBMCs of healthy donors, percent inhibition, 1 µg/ml” value is 77%; the “LPS-induced TNFα release from THP-1 cells, percent inhibition, 10 µg/ml, hybridoma-purified” value worked out at 76.7%; the “LPS-induced TNFα release from THP-1 cells, percent inhibition, recombinant antibody” value worked out at 75.9%; the “LPS-induced TNFα release from human macrophages of healthy donors, percent inhibition, 10 µg/ml” value was 93.2%. For the same molecule, in assay [1], the “PMA-induced HB-EGF release from PBMCs of healthy donors, percent inhibition, 1 µg/ml” value came to 77.6%; the “PMA-induced HB-EGF release from THP-1 cells, percent inhibition, 3 µg/ml” value turned out to be 76.6%; the “PMA-induced HB-EGF release from U-937 cells, percent inhibition” value is 104%; the “PMA-induced IL-6R release from PBMCs of healthy donors, percent inhibition, 1 µg/ml” value is 85%. Besides, in assay [1], the “PMA-induced IL-6R release from THP-1 cells, percent inhibition, 1 µg/ml” value worked out at 85.9%; the “PMA-induced IL-6R release from U-937 cells, percent inhibition, 1 µg/ml” value turned out to be 80.8%; the “PMA-induced IL-6R release from U-937 cells, percent inhibition, 3 µg/ml” value came out at 84.4%; the “PMA-induced TGFα release from PC3 cells, percent inhibition, 1 µg/ml” value worked out at 14.3%. Further, in assay [1], the “PMA-induced TNFα release from U-937 cells, percent inhibition, 1 µg/ml” value is 94.5% and the “PMA-induced TNFα release from U-937 cells, percent inhibition, 3 µg/ml” value came out at 94.1%. Further, in the assay with mouse iR1 wild type, the “loss of binding vs wild type” value is not below 95%. For the same molecule, the “loss of binding vs wild type” value with hiR1-FL-WT-T7 was not below 95%.

B3: antibody 44 (antibody, V domains shown)
VH: QVTLKESGPGILQPSQTLSLTCSFSGFSLSTFGMGVGWIRQPSEKGLEWLAHIWWDDDKYYNPALKSRLTISKDTSKNQIFLKITNVDTAETATYYCSRIGNYGSNYWYFDVWGTGTTVTVSS
VL: QIVLTQSPAVMSASPGEKVTMTCTASSSVYYMYWYQQTPGSSPRLLIYDTSNLASGVPVRFSGSGSGTSYSLTISRMEAEDAATYYCQQWNTYPLTFGAGTKLELK
notes: mouse IgG, kappa light chain; also called clone #44; purified antibody 44
Take B3: in assay [1], the “LPS-induced TNFα release from THP-1 cells, percent inhibition, 10 µg/ml, hybridoma-purified” value came out at 32.2%; the “LPS-induced TNFα release from THP-1 cells, percent inhibition, recombinant antibody” value amounted to 73.2%; the “PMA-induced HB-EGF release from THP-1 cells, percent inhibition, 3 µg/ml” value was determined as 67.5%; the “PMA-induced HB-EGF release from U-937 cells, percent inhibition” value stood at 100%. Further, in assay [1], the “PMA-induced IL-6R release from THP-1 cells, percent inhibition, 1 µg/ml” value is 73%; the “PMA-induced IL-6R release from U-937 cells, percent inhibition, 1 µg/ml” value amounted to 71.8%; the “PMA-induced IL-6R release from U-937 cells, percent inhibition, 3 µg/ml” value is 82%; the “PMA-induced TGFα release from PC3 cells, percent inhibition, 1 µg/ml” value was 14.1%. For the same molecule, in assay [1], the “PMA-induced TNFα release from U-937 cells, percent inhibition, 1 µg/ml” value stood at 76.5% and the “PMA-induced TNFα release from U-937 cells, percent inhibition, 3 µg/ml” value was found to be 86.3%. Besides, the “loss of binding vs wild type” value with mouse iR1 wild type is not below 95%. Besides, the “loss of binding vs wild type” value with hiR1-FL-WT-T7 was not below 95%.

B4: antibody 43 (antibody, V domains shown)
VH: QVALKESGPGILQPSQTLSLTCSFSGFSLSTFGMGVGWIRQSSGKGLEWLANIWWDDDKYYNPALKSRLTISKDASKNQAFLKIANVDTADTATYYCARIGNYGSNYWYFDVWGTGTTVTVSS
VL: QIVLTQSPAIMSASPGERVTMTCSANSRISYMYWYQQKPGSSPRLLIYDTSNLASGVPVRFSGSGSGTSYSLTISRMEAEDAATYNCQQWSSYPLTFGAGTKLELK
notes: mouse IgG, kappa light chain; also called clone #43; purified antibody 43
On to B4, for which, in assay [1], the “LPS-induced TNFα release from THP-1 cells, percent inhibition, 10 µg/ml, hybridoma-purified” value came to 74.8%; the “LPS-induced TNFα release from THP-1 cells, percent inhibition, recombinant antibody” value was found to be 78.5%; the “PMA-induced IL-6R release from THP-1 cells, percent inhibition, 1 µg/ml” value was 72.9%; the “PMA-induced IL-6R release from U-937 cells, percent inhibition, 1 µg/ml” value came out at 76.1%. In addition, in assay [1], the “PMA-induced TGFα release from PC3 cells, percent inhibition, 1 µg/ml” value turned out to be 12.4% and the “PMA-induced TNFα release from U-937 cells, percent inhibition, 1 µg/ml” value is 78.3%. Also, in the assay with mouse iR1 wild type, the “loss of binding vs wild type” value is not below 95%. The “loss of binding vs wild type” value with hiR1-FL-WT-T7 was not below 95%.

B5: antibody 3 (antibody, V domains shown)
VH: QVTLKESGPGILQPSQTLSLTCSFSGFSLTTFAMGIGWVRQPSGKGLEWLAHIWWDGEKYNNPVLKSRLTISKDTSKNQVFLRIANVDTPDTATYYCARISSIYYIIDNWGQGTSVTVSS
VL: DIVLTQSPATLSVTPGHSVSLSCRASQSISNNLHWYQKKSHESPRLLIKYVSQSISGIPSRFSGSGSGTDFTLSINSVETEDFGMYFCQQSYNWPLTFGAGTKLELK
notes: mouse IgG, kappa light chain; also called clone #3; purified antibody 3
As for B5, in assay [1], the “LPS-induced TNFα release from THP-1 cells, percent inhibition, 10 µg/ml, hybridoma-purified” value came out at 71.2%; the “LPS-induced TNFα release from THP-1 cells, percent inhibition, recombinant antibody” value worked out at 59.9%; the “PMA-induced IL-6R release from THP-1 cells, percent inhibition, 1 µg/ml” value came to 46.7%; the “PMA-induced IL-6R release from U-937 cells, percent inhibition, 1 µg/ml” value came out at 61.8%. In assay [1], the “PMA-induced TNFα release from U-937 cells, percent inhibition, 1 µg/ml” value stood at 65.9%. In addition, the “loss of binding vs wild type” value with mouse iR1 wild type was not below 95%. In the assay with hiR1-FL-WT-T7, the “loss of binding vs wild type” value is not below 95%.

(Values after patent US20240287172A1 (SCIRHOM, published 2024).)
